The record followed here is patent publication US6506889 (UNIVERSITY TECHNOLOGY, dated 2003).

T1: C. elegans SUR-8 deletion mutant lacking the N-terminal 88 amino acid non-LRR region (C. elegans, UniProt Q22875 89-559)
T1 construct: Range 89-559 is worked out from 'deletion of the N-terminal 88 amino acid' and the printed length of 559
T1 sequence: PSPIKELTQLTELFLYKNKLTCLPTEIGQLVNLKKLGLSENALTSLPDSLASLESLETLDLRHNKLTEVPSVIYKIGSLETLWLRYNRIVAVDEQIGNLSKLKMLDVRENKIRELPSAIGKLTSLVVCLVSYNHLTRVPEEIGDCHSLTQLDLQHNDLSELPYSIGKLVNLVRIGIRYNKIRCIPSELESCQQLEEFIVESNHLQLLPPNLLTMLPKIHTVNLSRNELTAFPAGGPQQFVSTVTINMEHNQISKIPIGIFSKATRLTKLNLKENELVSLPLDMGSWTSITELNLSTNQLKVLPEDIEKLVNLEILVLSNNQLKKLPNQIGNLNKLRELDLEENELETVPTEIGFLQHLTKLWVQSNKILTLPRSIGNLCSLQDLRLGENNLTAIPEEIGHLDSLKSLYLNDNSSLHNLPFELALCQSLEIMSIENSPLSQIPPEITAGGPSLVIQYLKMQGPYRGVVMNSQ

T2: C. elegans SUR-8 ku242 C233Y (yeast two-hybrid fusion) (C. elegans, UniProt Q22875 1-559)
T2 sequence: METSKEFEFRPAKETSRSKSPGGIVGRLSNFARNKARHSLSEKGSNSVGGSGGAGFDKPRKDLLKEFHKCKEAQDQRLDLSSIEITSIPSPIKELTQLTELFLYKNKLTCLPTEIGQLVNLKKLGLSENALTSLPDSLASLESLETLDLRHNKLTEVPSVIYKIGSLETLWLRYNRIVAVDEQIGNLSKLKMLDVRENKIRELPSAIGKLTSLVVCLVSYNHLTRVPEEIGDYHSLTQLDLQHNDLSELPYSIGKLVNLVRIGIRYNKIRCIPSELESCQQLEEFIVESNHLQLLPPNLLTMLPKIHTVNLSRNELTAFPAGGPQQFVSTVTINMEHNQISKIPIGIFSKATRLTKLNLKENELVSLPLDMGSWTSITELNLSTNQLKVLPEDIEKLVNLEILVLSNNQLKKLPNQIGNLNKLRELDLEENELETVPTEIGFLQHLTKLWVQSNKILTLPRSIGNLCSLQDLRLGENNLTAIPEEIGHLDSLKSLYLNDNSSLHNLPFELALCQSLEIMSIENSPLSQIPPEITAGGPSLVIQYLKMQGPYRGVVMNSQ

T3: wild type LIN-45 Raf (yeast two-hybrid fusion) (C. elegans, UniProt Q07292 1-813)
T3 construct: Tested against SUR-8 and against LET-60 Ras and its mutants; The constructs for the two tests may differ; not shown: two-hybrid fusion partner
T3 sequence (looked up): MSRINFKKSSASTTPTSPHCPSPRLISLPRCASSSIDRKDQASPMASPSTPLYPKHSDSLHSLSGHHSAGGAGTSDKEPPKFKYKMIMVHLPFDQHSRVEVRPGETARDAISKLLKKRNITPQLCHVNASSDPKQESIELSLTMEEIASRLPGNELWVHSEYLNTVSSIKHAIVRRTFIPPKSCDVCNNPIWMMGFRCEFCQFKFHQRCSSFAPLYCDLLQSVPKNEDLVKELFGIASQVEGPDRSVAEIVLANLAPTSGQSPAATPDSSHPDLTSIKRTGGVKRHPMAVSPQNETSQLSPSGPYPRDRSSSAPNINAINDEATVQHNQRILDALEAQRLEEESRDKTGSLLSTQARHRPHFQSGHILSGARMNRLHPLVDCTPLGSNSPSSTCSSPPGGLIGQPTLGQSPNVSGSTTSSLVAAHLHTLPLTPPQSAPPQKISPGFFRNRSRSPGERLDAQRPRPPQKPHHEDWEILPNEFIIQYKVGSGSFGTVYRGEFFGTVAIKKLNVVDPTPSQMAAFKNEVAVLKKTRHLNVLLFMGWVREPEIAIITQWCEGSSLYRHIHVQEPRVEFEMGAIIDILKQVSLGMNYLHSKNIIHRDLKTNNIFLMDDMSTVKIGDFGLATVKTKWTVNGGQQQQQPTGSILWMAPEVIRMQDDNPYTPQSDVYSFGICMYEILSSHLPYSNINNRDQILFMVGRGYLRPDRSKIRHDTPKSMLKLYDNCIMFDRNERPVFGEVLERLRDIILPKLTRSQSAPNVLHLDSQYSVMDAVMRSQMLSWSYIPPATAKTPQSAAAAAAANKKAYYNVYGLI

B1: wild type LET-60 Ras fused to the GAL4 DNA binding domain (enzyme, UniProt P04386 1-147, looked up)
chain: MKLLSSIEQACDICRLKKLKCSKEKPKCAKCLKNNWECRYSPKTKRSPLTRAHLTEVESRLERLEQLFLLIFPREDLDMILKMDSLQDIKALLTGLFVQDNVNKDAVTDRLASVETDMPLTLRQHRISATSSSEESSNKGQRQLTVSMTEYKLVVVGDGGVGKSALTIQLIQNHFVEEYDPTIEDSYRKQVVIDGETCLLDILDTAGQEEYSAMRDQYMRTGEGFLLVFAVNEAKSFENVANYREQIRRVKDSDDVPMVLVGNKCDLSSRSVDFRTVSETAKGYGIPNVDTSAKTRMGVDEAFYTLVREIRKHRERHDNNKPQKKKKCQIM
B2: C. elegans SUR-8 fused to the GAL4 activation domain (other, not shown: large carriers)
chain: T2 sequence with Y233C
notes: Yeast two-hybrid construct: 1.7 kb sur-8 cDNA cloned in-frame into pACT2; also called Ce SUR-8; wild-type SUR-8
B3: MEK-2 MEK (yeast two-hybrid fusion) (enzyme, C. elegans, UniProt Q10664 1-387, looked up)
chain: MSSGKRRNPLGLSLPPTVNEQSESGEATAEEATATVPLEEQLKKLGLTEPQTQRLSEFLQVKEGIKELSEDMLQTEGELGHGNGGVVNKCVHRKTGVIMARKLVHLEIKPSVRQQIVKELAVLHKCNSPFIVGFYGAFVDNNDISICMEYMDGLSLDIVLKKVGRLPEKFVGRISVAVVRGLTYLKDEIKILHRDVKPSNMLVNSNGEIKLCDFGVSGMLIDSMANSFVGTRSYMAPERLTGSHYTISSDIWSFGLSLVELLIGRYPVPAPSQAEYATMFNVAENEIELADSLEEPNYHPPSNPASMAIFEMLDYIVNGPPPTLPKRFFTDEVIGFVSKCLRKLPSERATLKSLTADVFFTQYADHDDQGEFAVFVKGTINLPKLNP
notes: not shown: two-hybrid fusion partner
B4: MPK-1 MAP kinase (yeast two-hybrid fusion) (enzyme, C. elegans, UniProt P39745-2 1-376, looked up)
chain: MADGEAVISTVNNVEEVHGQLFEVAPRYVNLSYIGEGAYGMVASALDTITRDRVAIKKISPFEHQTFCQRTLREIKILNRFKHENIINIQEIIRSETVDSLKDIYIVQCLMETDLYKLLKTQKLSNDHVCYFLYQILRGLKYIHSANVLHRDLKPSNLLLNTTCDLKICDFGLARVTDPQTDHTGFLTEYVATRWYRAPEIMLNSKGYTKSIDVWSVGCILAEMLSNRPLFPGKHYLDQLNLILAVVGSPSNADLQCIINDKARSYLISLPHKPKQPWARLYPGADPRALDLLDKMLTFNPHNRIDIEQALAHPYLEQYYDPGDEPVCEEPFTLEMEFDDLPKEKLKELIWEEAEAHHRRMEAEAAARNNGGQNPV
notes: as for B3

Where a chain is given by its changes, count along the chain named.

The target of assay [1] is T1, C. elegans SUR-8 deletion mutant …. Description: yeast two-hybrid.
Assay [2] deals with T2, C. elegans SUR-8 ku242 C233Y (yeast …). Description: yeast two-hybrid.
For assay [3], the target named is T3, wild type LIN-45 Raf (yeast two-hybrid …). Description: yeast two-hybrid.
Assay [4] has as its target B2. Description: yeast two-hybrid, His and LacZ reporters.

B1: the binding result in assay [1] and in assay [2] was “no binding” throughout.
For B2, the binding result in assay [3] was “no binding”.
B3: the binding result in assay [4] is given as “no binding”.
On the same count and under the same terms, with B4 the entry was “no binding”.
